Results on five sequences are retold here after US20180305695.

This data set concerns the target von Willebrand factor A1 domain (Homo sapiens) (UniProt P04275). Put plainly: SPR. The conditions noted are these: 37 C.

“CGAGGCTCCCCANCTTTCGCCNACANCCGAGGGAGCCTCG [vWF1-DsDsDs-GC]”: the dissociation constant Kd (n = Ds at 3 positions, phosphate buffer 155 mM NaCl, 0.05% NP-40) stood at 1080 pM.

Under “n = Ds at 3 positions, phosphate buffer 155 mM NaCl, 0.05% NP-40, koff 0.00159 1/s, printed as GCmh”, “CGAGGCTCCCCANCTTTCGCCNACANCCGAGGGAGCCTCGCGCGTAGCG [vWF1-DsDsDs-mhGC]” gave a Kd of 780 pM. This counts as sub-nanomolar.

“CGCGGCCGANGAGCACCGAAGGTCTCAACGNTGGAGGCCGCGCGCGTAGCG [vWF2-DsDsDs-2mhGC]” came in with a dissociation constant (Kd) (n = Ds, likely pM (protein 0.078-5 nM)) of 6.13e+07 pM.

Regarding “CGTGACCGANGAGCACCTAACNGGTCTCAACGNTGGAGGTCACG [vWF2-DsDsDs]”, the Kd (n = Ds at 3 positions, likely pM (protein 0.078-5 nM)) is 7.49e+07 pM.

For the sequence “TGAGACTCCCCANCTTTCGCCNACANCCGAGGGAGTCTCA [vWF1-DsDsDs]”, the Kd (n = Ds (7-(2-thienyl)-3H-imidazo[4,5-b]pyridin-3-yl) at 3 positions, phosphate buffer 155 mM NaCl, 0.05% NP-40) is 1030 pM.

By Kd is commonly meant a measure of binding affinity in units of concentration. A high value points to lower affinity.
